Data set [1] deals with T1, h-mtTFA1-179 (Homo sapiens, UniProt Q00059 43-221).
T1 sequence: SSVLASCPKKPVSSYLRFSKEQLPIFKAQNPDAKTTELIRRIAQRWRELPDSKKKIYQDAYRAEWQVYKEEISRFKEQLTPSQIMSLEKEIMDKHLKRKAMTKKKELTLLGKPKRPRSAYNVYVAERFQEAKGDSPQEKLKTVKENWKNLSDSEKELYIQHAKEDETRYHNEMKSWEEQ
As to the kind of experiment: competition.

Data set [2] addresses T2, h-mtTFA box B (mtTFA110-179) (Homo sapiens, UniProt Q00059 152-221).
T2 sequence: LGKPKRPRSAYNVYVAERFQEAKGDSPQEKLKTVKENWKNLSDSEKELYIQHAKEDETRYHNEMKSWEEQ
Description: EMSA. Background: A gel shift assay detects complexes by their altered migration in electrophoresis.

For data set [3], the target named is T3, h-mtTFA full-length (mature) (Homo sapiens, UniProt Q00059 43-246).
T3 sequence: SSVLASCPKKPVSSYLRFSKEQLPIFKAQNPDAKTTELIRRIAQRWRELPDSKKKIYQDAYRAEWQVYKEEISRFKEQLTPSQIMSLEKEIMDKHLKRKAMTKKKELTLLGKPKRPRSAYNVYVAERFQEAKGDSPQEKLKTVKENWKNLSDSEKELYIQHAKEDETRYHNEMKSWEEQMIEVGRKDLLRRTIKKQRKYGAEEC
Description: EMSA.

For data set [4], the target named is T1, h-mtTFA1-179. As to the kind of experiment: EMSA.

For three molecules, binding result and Kd results are on record in publication PMC2691818.

The Kd is the constant that tells how readily two partners part at equilibrium. A higher Kd goes with a looser complex.

B1: 30 bp scrambled nonspecific DNA (NS DNA) (dsDNA)
DNA 1: ACTACTAACAGACCGCAACCTAAACACAAC
DNA 2: GTTGTGTTTAGGTTGCGGTCTGTTAGTAGT
In the case of B1, the binding result in the data set with h-mtTFA1-179 [1] is on record as “binds”.

B2: 30 bp LSP DNA, unlabeled (dsDNA)
DNA 1: GTGTTAGTTGGGGGGTGACTGTTAAAAGTG
DNA 2: CACTTTTAACAGTCACCCCCCAACTAACAC
For B2, the binding result in data set [2] is reported as “no binding”.

B3: 30 bp LSP DNA, 32P-labeled (dsDNA)
DNA 1: B2 DNA 1
DNA 2: B2 DNA 2
As to B3, the values for the Kd (in data set [3]; with h-mtTFA1-179 [4]) were 5.4 ± 0.6 nM and 12 ± 1.7 nM, respectively.
